Source: paper PMC11490872, “Drug-resistant menin variants retain high binding affinity and interactions with MLL1” (The Journal of Biological Chemistry, 2024)
Where two headings read alike, the source gives them in different places.

T1: menin^M327I bound to FLSN-MLL1^4-43 (Homo sapiens, UniProt O00255, M322I)
T1 construct: The gene encoding full-length human menin was cloned into a pET32a expression vector; thioredoxin-His6 (cleaved yes); made in house; host or cells: E. coli BL21(DE3); probe peptide from GenScript
T1 sequence (O00255 1-610 M322I): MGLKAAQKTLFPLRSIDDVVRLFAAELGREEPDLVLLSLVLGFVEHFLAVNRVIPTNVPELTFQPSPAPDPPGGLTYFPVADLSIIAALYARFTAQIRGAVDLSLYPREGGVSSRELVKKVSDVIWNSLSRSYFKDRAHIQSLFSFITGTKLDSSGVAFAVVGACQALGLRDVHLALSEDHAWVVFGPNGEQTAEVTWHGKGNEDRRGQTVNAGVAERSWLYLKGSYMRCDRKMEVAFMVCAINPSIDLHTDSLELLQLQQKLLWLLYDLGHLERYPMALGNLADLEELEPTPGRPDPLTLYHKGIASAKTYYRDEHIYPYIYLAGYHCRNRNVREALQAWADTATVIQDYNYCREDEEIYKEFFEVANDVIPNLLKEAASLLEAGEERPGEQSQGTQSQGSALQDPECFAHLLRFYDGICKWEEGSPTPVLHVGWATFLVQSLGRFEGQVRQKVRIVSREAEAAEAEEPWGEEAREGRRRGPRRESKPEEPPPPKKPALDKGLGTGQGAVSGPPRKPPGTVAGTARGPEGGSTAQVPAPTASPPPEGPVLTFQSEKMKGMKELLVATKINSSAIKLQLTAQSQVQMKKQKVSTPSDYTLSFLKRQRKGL

T2: menin^G331D-FLSN-MLL1^4-43 (Homo sapiens, UniProt O00255, G326D)
T2 construct: The gene encoding full-length human menin was cloned into a pET32a expression vector; thioredoxin-His6 (cleaved yes); made in house; host or cells: E. coli BL21(DE3); probe peptide from GenScript
T2 sequence (O00255 1-610 G326D): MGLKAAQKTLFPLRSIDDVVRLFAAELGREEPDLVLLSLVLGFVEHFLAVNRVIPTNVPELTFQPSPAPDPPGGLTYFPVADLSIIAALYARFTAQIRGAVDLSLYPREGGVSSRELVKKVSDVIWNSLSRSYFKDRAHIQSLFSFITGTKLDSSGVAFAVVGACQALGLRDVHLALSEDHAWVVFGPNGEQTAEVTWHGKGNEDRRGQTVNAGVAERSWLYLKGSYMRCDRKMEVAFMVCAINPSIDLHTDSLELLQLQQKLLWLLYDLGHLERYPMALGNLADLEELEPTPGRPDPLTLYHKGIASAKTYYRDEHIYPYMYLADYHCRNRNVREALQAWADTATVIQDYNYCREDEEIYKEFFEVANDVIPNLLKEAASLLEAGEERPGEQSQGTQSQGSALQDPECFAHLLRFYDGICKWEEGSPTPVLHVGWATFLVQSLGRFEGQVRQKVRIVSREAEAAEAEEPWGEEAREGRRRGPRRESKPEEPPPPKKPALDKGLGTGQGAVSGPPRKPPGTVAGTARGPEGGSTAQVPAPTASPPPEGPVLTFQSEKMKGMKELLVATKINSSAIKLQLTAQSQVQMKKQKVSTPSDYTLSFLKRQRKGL


Tests used:
[1] = biological target: T1, menin^M327I bound to FLSN-MLL1^4-43; assay: FP competition, displacement of FLSN-MLL1^4-43 from menin^M327I; type: binding
Protocol: (§1) FP competition experiments used FLSN-MLL1^4-43 at 4 nM and menin at 4 nM against varying concentrations of unlabeled MLL1 peptides in FP buffer for IC50 determination. Protein-peptide complexes were incubated for 1 h before unlabeled peptide competitors were added to ensure complete binding. Unlabeled peptide competitors were incubated with the protein-peptide complexes for 3 h before measurement using the PHERAstar microplate reader ([25]). Experiments with Revumenib were run with the same steps and conditions but used 5% DMSO in the final solution. Kd and IC50 values were calculated using GraphPad Prism 10 by plotting mP values measured for each protein/MLL1 peptide or Revumenib as a function of protein/MLL1 peptide (or Revumenib) concentration ([25]). All FP binding and competition experiments were run in triplicate.

[2] = biological target: T2, menin^G331D-FLSN-MLL1^4-43; assay: FP competition, displacement of FLSN-MLL1^4-43 from menin^G331D; type: binding
Protocol: To better understand the mechanism of MLL1 binding with menin mutants, we performed FP competition experiments using FLSN-MLL1^4-43 as a fluorescent probe for competitive displacement by MLL1 peptides ([25]). First, we tested competition with MLL1^160 and found very similar IC50 values for wild-type menin and the three mutants M327I, T349M, and G331R, ranging between 4.1 and 8 nM (Fig. 3, A and B). […] We have hypothesized that the lack of competition with MLL1 for the menin^G331D mutant might result from a much slower dissociation rate of the menin^G331D–MLL1 complex, and to evaluate this we performed time-dependent competition experiments with MLL1^160 and MLL1^46. Standard conditions in the FP assay include 3 h incubations of the menin-FLSN-MLL1^4-43 complex with competitors.
as §1

[3] = tested on: patients with MLL1-r and NPM1-mut acute leukemias; details: cited from earlier work
[4] = Phase 1/2, AML patients with KMT2A (MLL1) rearrangements and NPM1 mutations
[5] = FP competition with MLL1 fragments, 3 h incubation, N = 3, Fig. 3B, read-out: M327I IC50
[6] = FP competition with MLL1 fragments, 3 h incubation, N = 3, Fig. 3B, read-out: G331D IC50
[7] = time-dependent competition, 3 h, Fig. 3D, read-out: 3h IC50
[8] = time-dependent competition, 24 h, Fig. 3D, read-out: 24h IC50
[9] = time-dependent competition, 48 h, Fig. 3D, read-out: 48h IC50
[10] = time-dependent competition, 72 h, Fig. 3D, read-out: 72h IC50

IC50 ([1]; FP competition, 5% DMSO, 3 h, N = 3, Fig. 4A, read-out: IC50 (nM), menin variant M327I) | activity for the G331D variant ([2]; FP competition, 5% DMSO) | IC50 [1, 5] | IC50 [2, 6] | IC50 [2, 7] | IC50 [2, 8] | IC50 [2, 9] | IC50 [2, 10] | IC50 ([2]; 24 to 72 h incubations, read-out: IC50 values, range over time points) | Molecule | complete remission [3, 4] | overall response rate [3, 4] | rate of complete remission ([3]; phase 1/2 first-in-human trials, MLL1-r and NPM1-mut acute leukemias)
535 ± 37 nM | no activity |  |  |  |  |  |  |  | CCN(C(=O)c1cc(F)ccc1Oc1cncnc1N1CC2(CCN(C[C@H]3CC[C@H](NS(=O)(=O)CC)CC3)CC2)C1)C(C)C [Revumenib, reference compound] | ~35% | ~45% | over 30%
 |  | 1.7 ± 0.7 nM | > 200 nM | > 200 nM | 0.87 ± 0.8 nM | 1.1 ± 0.6 nM | 1 ± 0.2 nM |  | MLL1^46: recombinant MLL1 fragment spanning amino acids 1–46, containing MBM1 and MBM2 (MAHSARWRFPARPGTTGGGGGGGRRGLGGAPRQRVPALLLPPGPPV; The printed 'Cys2' is Cys5 in the entry (peptide S4-A5-R6); Trx-His6 tag cl) |  |  | 
 |  | 5.1 ± 0.2 nM | > 200 nM | > 200 nM | 4.73 ± 0.8 nM | 10.9 ± 6.2 nM | 7.9 ± 0.5 nM | 4.7 to 10.9 nM | MLL1^160: N-terminal 160 amino acids of human MLL1, Cys2 mutated to alanine, recombinant (protein, The printed 'Cys2' is the single N-terminal cysteine, Cys5 in the entry (peptide S4-A5-R6); Trx-His6 tag cleaved) MAHSARWRFPARPGTTGGGGGGGRRGLGGAPRQRVPALLLPPGPPVGGGGPGAPPSPPAVAAAAAAAGSSGAGVPGGAAAASAASSSSASSSSSSSSSASSGPALLRVGPGFDAALQVSAAIGTNLRRFRAVFGESGGGGGSGEDEQFLGFGSDEEVRVR |  |  | 
